Measurements: article PMC5891007, “The crystal structure of XdpB, the bacterial old yellow enzyme, in an FMN-free form” (PLoS ONE, 2018)
Each block holds one molecule with its values, some of them ahead of it.

What was measured:
[1] = system: NC(=O)C1=CN([C@@H]2O[C@H](COP(=O)(O)OP(=O)(O)OC[C@H]3O[C@@H](n4cnc5c(N)ncnc54)[C@H](O)[C@@H]3O)[C@@H](O)[C@H]2O)C=CC1; assay: purified protein; details: NADH co-substrate, pH 8, 25 °C, in vitro flavinated, recalculated to FMN saturation, except NADH varied (0.015 to 0.3 mM), co-substrate GTN
[2] = biological target: XdpA, short chain dehydrogenase of the xdo operon (Agrobacterium bohemicum R89-1); assay: SEC; gel filtration chromatography, with SDS PAGE for the subunit
XdpB (XdpBwt) [3] = biological target: T1, XdpB (XdpBwt) (Agrobacterium tumefaciens, UniProt A0A0A0VDJ9); assay: spectrophotometric NADH oxidation at […] nm, Lineweaver-Burk; details: read-out: Km^GTN; NADH co-substrate; pH 8; 25 °C; in vitro flavinated, recalculated to FMN saturation
T1 sequence (A0A0A0VDJ9 entry or part of it): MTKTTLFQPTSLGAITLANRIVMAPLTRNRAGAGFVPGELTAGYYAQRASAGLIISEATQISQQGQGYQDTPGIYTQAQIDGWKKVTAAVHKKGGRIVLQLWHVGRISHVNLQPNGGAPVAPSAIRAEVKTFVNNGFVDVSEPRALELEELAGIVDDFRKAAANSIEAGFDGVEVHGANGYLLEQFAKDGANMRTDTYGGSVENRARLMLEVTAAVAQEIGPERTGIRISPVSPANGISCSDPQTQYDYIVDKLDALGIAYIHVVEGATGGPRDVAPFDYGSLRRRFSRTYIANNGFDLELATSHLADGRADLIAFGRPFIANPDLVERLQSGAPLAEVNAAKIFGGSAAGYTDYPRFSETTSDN

[4] = biological target: OPR3 (Solanum lycopersicum) (UniProt Q9FEW9); details: cited from earlier work
[5] = biological target: XdpR, TetR family transcriptional regulator of the xdo operon (Agrobacterium bohemicum R89-1); assay: SEC + native gel or EMSA; gel filtration; native (blue native, 7% PAGE) and SDS electrophoresis
XdpB (XdpBwt) [6] = biological target: T1, XdpB (XdpBwt); assay: nanoDSF melting temperature; format: binding; parameters: full length with N-terminal His tag (XdpBwt), made in E. coli, Ni-NTA and gel filtration; in vitro flavinated with FMN for kinetics; C-terminal residue Asn365; details: apo form Tm 38.9 °C, 1 °C/min

Chain of OPR3 (Q9FEW9 whole entry): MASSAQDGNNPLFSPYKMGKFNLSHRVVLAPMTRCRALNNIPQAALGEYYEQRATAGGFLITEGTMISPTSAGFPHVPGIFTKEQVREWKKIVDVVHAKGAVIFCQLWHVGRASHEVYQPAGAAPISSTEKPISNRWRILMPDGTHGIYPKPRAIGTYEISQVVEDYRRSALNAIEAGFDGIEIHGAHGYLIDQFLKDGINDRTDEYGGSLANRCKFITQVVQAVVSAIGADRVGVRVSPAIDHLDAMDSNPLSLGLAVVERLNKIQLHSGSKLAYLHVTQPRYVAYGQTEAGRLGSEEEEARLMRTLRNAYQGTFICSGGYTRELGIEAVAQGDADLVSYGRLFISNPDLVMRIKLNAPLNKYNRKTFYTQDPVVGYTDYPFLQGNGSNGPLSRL

Molecule: XdpB (XdpBwt) (Agrobacterium tumefaciens)
- Km [1]: 6 ± 1 µM

- stoichiometry N [2]: 2
Molecule: XdpA, short chain dehydrogenase of the xdo operon (enzyme)

Molecule: O=[N+]([O-])OCC(CO[N+](=O)[O-])O[N+](=O)[O-] [GTN, glycerol trinitrate]
- Km (XdpB (XdpBwt) [3]): 460 ± 132 µM

Molecule: OPR3 (from UniProt Q9FEW9)
- Kd [4]: 30 µM

- stoichiometry N [5]: 2
Molecule: XdpR, TetR family transcriptional regulator of the xdo operon (natural protein)

Molecule: Cc1cc2nc3c(=O)[nH]c(=O)nc-3n(C[C@H](O)[C@H](O)[C@H](O)COP(=O)(O)O)c2cc1C [FMN, flavin mononucleotide]
- melting temperature of in vitro flavinated form (XdpB (XdpBwt) [6]): 39.8 °C
